Experimental data published in publication PMC8392704, “Small Hexokinase 1 Peptide against Toxic SOD1 G93A Mitochondrial Accumulation in ALS Rescues the ATP-Related Respiration” (Biomedicines, 2021).
Primed or numbered codes have the meaning given here. Where no end group is shown, it is not given here. FITC′ = not defined here

Target: T1, Recombinant 6xHis-tagged human VDAC1 (Voltage-Dependent Anion Channel 1) (human, UniProt P21796 1-283)
T1 construct: Voltage-Dependent Anion selective Channel 1 (VDAC1), human; PDB 6G6U is the cited crystal structure of human VDAC1, used only for docking; also called mitochondrial porin; porin; not shown: His6, C-terminal, kept
T1 sequence (P21796 whole entry): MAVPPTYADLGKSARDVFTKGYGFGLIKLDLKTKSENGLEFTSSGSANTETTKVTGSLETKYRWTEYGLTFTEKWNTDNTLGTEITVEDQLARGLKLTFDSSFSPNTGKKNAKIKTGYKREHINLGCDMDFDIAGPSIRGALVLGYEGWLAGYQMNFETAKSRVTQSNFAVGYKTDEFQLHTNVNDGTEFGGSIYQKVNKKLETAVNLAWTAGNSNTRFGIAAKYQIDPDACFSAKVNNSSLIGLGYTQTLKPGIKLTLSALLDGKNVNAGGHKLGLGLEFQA
Assay: pull-down + SEC; 1 uM C-terminal His-tagged VDAC1 immobilised on Ni2+-Sepharose beads, incubated with 1 uM NHK1-FITC for 24 h; unbound peptide washed off; eluted with 200 mM imidazole; eluate loaded on Superdex200 and the complex detected by FSEC (ex/em 494/518 nm), with the VDAC1 profile at 280 nm
Settings: both partners purified

B1: NHK1-FITC peptide (FITC-labeled NHK1, residues 2-12 of human HK1) (peptide)
peptide: IAAQLLAYYFT-{FITC′}
notes: hexokinase 1 (HK1), human, amino acids 2-12; also called FITC-NHK1; NHKI; source: synthetic peptide, produced by Proteogenix
  binding result: binds
